{
  "source": "patent US20070184522A1",
  "about": "“Cell death modulation via antagonists of Fasl and Fas activation” (University of Pittsburgh of the Commonwealth System of …, priority 2004, published 2007)",
  "key": {"[1]": {"test_system": "endogenous Fas from Jurkat and Hepa 1-6 cells", "experiment": "Immunoprecipitation with anti-Fas antibody after adding AlphaMet proteins to Jurkat and Hepa 1-6 cells, Western blot with anti-His", "assay_type": "binding", "details": "proteins added to Jurkat cells and Hepa 1-6 cells", "from_the_text": "The Met alpha but not beta chain binds to Fas (FIG. 1a). Various regions of the mouse Met cDNA corresponding to the alpha chain or the extra-cellular portion of the Met beta chain were cloned into expression vectors (pCRT7 TOPO/AlphaMet or pCRT7 TOPO/beta chain) and subjected to in vitro transcription/translation by a rabbit reticolucyte lysate translation system. Empty vector was included in each experiment as a control. The expressed proteins were labeled with ^35S-Methionine. Pull down assays were performed using Fas-Fc, a chimeric molecule which lacks the interacellular cytoplasmic domain and protein-A agarose as described in Wang et al., 2002. […] FIG. 1d depicts the amino acid sequence alignment of alpha chain with FasL, determined using the CLUSTALW, SIM+LALNVIEW, and ALIGN at ExPASy Proteomic Tools (available on the internet at us.expresly.org/tools). […] Recombinant His-tagged AlphaMet or its mutant version were expressed in E. coli, purified with chromatography, and subjected to Fas-Fc (lanes labeled Fas) or control IgG pull down experiments, and detected by Western blot using anti-His antibody that recognizes C-terminal His. […] After washing the wells, anti-human […]-HRP conjugates (1:20,000) were added to detect the bound Fas-Fc using TMD dye and the OD value was determined at a wavelength of 450 nm. […]"}, "[2]": {"biological_target": "T1, Fas-Fc (extracellular part of Fas) (Mus musculus, UniProt P25446)", "T1 construct": "purchased R&D", "T1 sequence (P25446 22-169 limits assumed)": "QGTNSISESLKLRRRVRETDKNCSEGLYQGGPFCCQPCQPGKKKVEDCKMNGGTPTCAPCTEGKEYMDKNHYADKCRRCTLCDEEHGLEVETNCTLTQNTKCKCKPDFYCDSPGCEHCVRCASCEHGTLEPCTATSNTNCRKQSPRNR", "experiment": "Fas-Fc pull down assay with protein-A agarose", "assay_type": "binding", "from_the_text": "The Met alpha but not beta chain binds to Fas (FIG. 1a). Various regions of the mouse Met cDNA corresponding to the alpha chain or the extra-cellular portion of the Met beta chain were cloned into expression vectors (pCRT7 TOPO/AlphaMet or pCRT7 TOPO/beta chain) and subjected to in vitro transcription/translation by a rabbit reticolucyte lysate translation system. Empty vector was included in each experiment as a control. The expressed proteins were labeled with ^35S-Methionine. Pull down assays were performed using Fas-Fc, a chimeric molecule which lacks the interacellular cytoplasmic domain and protein-A agarose as described in Wang et al., 2002. FIG. 1b is a schematic presentation of the Met alpha chain and its mutant version used to map the region interacting with Fas. The C-terminus of each construct contains a hexa-Histidine tag for ease of detection. Start cordon ATG was added to the N-terminally truncated constructs. The YLGA (SEQ ID NO:1) motif mutation was prepared by PCR, in which YLGA (SEQ ID NO:1) was replaced by DHER (SEQ ID NO:24). […] In vitro translated ^35S-methionine labeled truncated/mutated AlphaMet proteins were pulled down with 2 μg of Fas-Fc or the same amount of IgG. Lane 1: 10% of AlphaMet input; Lane 2: AlphaMet with IgG control; Lanes 3 to 8: pull down of various truncated AlphaMet proteins; N-terminal 1-106 residues; C-terminal truncated, residues 1-210; alpha chain, residues 1-306; alpha chain with transmembrane domain, 1-338; N-terminally truncated alpha chain, residues 100-306; and N-terminally truncated with addition of the transmembrane domain 100-338, respectively. FIG. 1d depicts the amino acid sequence alignment of alpha chain with FasL, determined using the CLUSTALW, SIM+LALNVIEW, and ALIGN at ExPASy Proteomic Tools (available on the internet at us.expresly.org/tools). The numbers indicate the amino acid residues of the indicated protein. […] Recombinant His-tagged AlphaMet or its mutant version were expressed in E. coli, purified with chromatography, and subjected to Fas-Fc (lanes labeled Fas) or control IgG pull down experiments, and detected by Western blot using anti-His antibody that recognizes C-terminal His. This antibody also recognizes the Fas-Fc which is also tagged at the C-terminus by His. […] Purified recombinant AlphaMet protein (approximately 10 μg) was mixed with Hepa 1-6 cells or Jurkat cell lysates and subjected to immunoprecicitation using anti-Fas antibody or control IgG followed by Western blot using anti His-tag antibody as a probe. […] After washing the wells, anti-human […]-HRP conjugates (1:20,000) were added to detect the bound Fas-Fc using TMD dye and the OD value was determined at a wavelength of 450 nm. […]"}},
  "data": [
    {"molecule": "alpha subunit of Met (AlphaMet), amino acid residues 1 to 306, His-tagged (receptor, mouse) MKAPTVLAPGILVLLLSLVQRSHGECKEALVKSEMNVNMKYQLPNFTAETPIQNVVLHGHHIYLGATNYIYVLNDKDLQKVSEFKTGPVLEHPDCLPCRDCSSKANSSGGVWKDNINMALLVDTYYDDQLISCGSVNRGTCQRHVLPPDNSADIQSEVHCMFSPEEESGQCPDCVVSALGAKVLLSEKDRFINFFVGNTINSSYPPGYSLHSISVRRLKETQDGFKFLTDQSYIDVLPEFLDSYPIKYIHAFESNHFIYFLTVQKETLDAQTFHTRIIRFCSVDSGLHSYMEMPLECILTEKRRKRHHHHHH", "values": [
      {"measurement": "co-precipitation with anti-Fas", "setting": "[1]", "result": "could be co-precipitated with anti-Fas"},
      {"measurement": "Fas binding in Fas-Fc pull down", "setting": "[2]; in vitro translated 35S-labeled proteins, autoradiography, listed as Met alpha chain", "result": "bound specifically to the Fas molecule"},
      {"measurement": "Fas binding in Fas-Fc pull down", "setting": "[2]; in vitro translated 35S-labeled proteins, autoradiography, listed as full length AlphaMet", "result": "bound Fas very efficiently"},
      {"measurement": "Fas binding in Fas-Fc pull down", "setting": "[2]; recombinant His-tagged proteins expressed and purified in E. coli, Western blot anti-His", "result": "bound avidly"}
    ]}
  ]
}
